# Reference: US12617816B2 (priority 2019, dated 2026)
# Read-outs that look alike come from different tables or passages of the source.
# Experiments:
# [1] = in vivo; conditions: mouse, iv
# [2] = mouse, in vivo
# [3] = target: T1, human mu-opioid receptor (Homo sapiens, UniProt P35372); experiment: cell-based; type: binding
# T1 construct: host or cells: CHO-K1
# [4] = tested on: MOR; set-up: species or system mice; conditions: in vivo
# [5] = target: MOR (Homo sapiens, UniProt P35372)
# [6] = target: T1, human mu-opioid receptor; type: cell-based
# [7] = in vivo; cited from earlier work
# T1 sequence (P35372 whole entry): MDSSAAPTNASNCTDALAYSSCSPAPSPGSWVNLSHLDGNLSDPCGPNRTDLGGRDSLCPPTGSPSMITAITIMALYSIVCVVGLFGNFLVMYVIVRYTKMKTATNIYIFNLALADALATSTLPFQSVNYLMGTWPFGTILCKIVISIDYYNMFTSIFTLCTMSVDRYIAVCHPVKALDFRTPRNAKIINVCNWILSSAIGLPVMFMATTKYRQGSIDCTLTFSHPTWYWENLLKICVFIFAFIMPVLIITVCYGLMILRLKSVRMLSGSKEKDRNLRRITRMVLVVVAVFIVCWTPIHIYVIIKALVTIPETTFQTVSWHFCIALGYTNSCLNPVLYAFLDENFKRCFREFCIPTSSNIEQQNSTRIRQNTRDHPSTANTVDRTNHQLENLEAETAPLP
# Chain of MOR (Homo sapiens, UniProt P35372) (P35372 whole entry): as above
Compound,half-life ([1]; distribution half-life (biexponential)) [min],half-life ([1]; elimination (β) half-life (biexponential)) [min],half-life ([1]; plasma half-life (time in which the concentration of dye is 50% of initial)) [min],tolerability of intravenous injection [2],distribution half-life (biexponential) ([2]; iv),elimination (β) half-life (biexponential) ([2]; iv),persistence in plasma ([2]; iv),plasma half-life (time in which the concentration of dye is 50% of initial) ([2]; iv) [min],IC50 [3] [nM],Ki [3] [nM],"ratio of enhancement, wildtype to knockout mouse [4] [×]",enhancement in wildtype compared to knockout mice ([4]; mouse),Binding potential (BP) [5],displacement of retained DRM-800 by naloxone [6],half-life [7] [min]
"C[C@@H](NC(=O)[C@@H](N)Cc1ccc(O)cc1)C(=O)N[C@@H](Cc1ccccc1)C(=O)NCC(=O)N[C@@H](Cc1ccc(O)cc1)C(=O)N1CCC[C@H]1C(=O)N[C@@H](CCCCN)C(=O)N[C@@H](CSC1CC(=O)N(CCNC(=O)CCCCC[N+]2=C(/C=C/C3=C(Oc4ccc(S(=O)(=O)O)cc4)C(=C/C=C4/N(CCCCS(=O)(=O)O)c5ccc(S(=O)(=O)O)cc5C4(C)C)/CCC3)C(C)(C)c3cc(S(=O)(=O)[O-])ccc32)C1=O)C(N)=O (stereo partly drawn) [DRM-800, [Lys7]dermorphin-IRDye800CW]",3.3,70.8,7.95,well-tolerated,6.2 (4.9-8.6) min,45 (33-68) min,at least one hour,12.6,3.5,0.64,3.1,higher enhancement in the wildtype mice compared to knockout mice,approximately 10,cannot be displaced even at high concentrations of naloxone,
C=CCN1CC[C@]23c4c5ccc(O)c4O[C@H]2C(=O)CC[C@@]3(O)[C@H]1C5 [naloxone],,,,,,,,,,,,,,,60 to 80
